From US20240125793A1

Legend:
5c1-I-E^k (murine) [1] = molecular target: 5c1-I-E^k (murine) (UniProt P04224); test: SPR (Biacore T100), refolded TCR over peptide-exchanged biotinylated I-Ek on SA chip, equilibrium
[2] = molecular target: MCC-I-E^k (soluble I-Ek exchanged with the MCC peptide) (murine) (UniProt P04224); test: as above
5c3-I-E^k (murine) = 5c3-I-E^k (murine) (UniProt P04224); test: as above
5c1-I-E^k (murine) [3] = molecular target: 5c1-I-E^k (murine) (UniProt P04224); test: cell-based or functional assay
[4] = molecular target: MCC-I-E^k (soluble I-Ek exchanged with the MCC peptide) (murine) (UniProt P04224); test: cell-based or functional assay

Substance: 5cc7 TCR
- Kd (5c1-I-E^k (murine) [1]): 115 µM
- Kd [2]: 41 µM
- Kd (5c3-I-E^k (murine)): 62 µM
- signaling potency (EC50) (5c1-I-E^k (murine) [3]): 1.5 µM
- signaling potency (EC50) [4]: 0.0084 µM
